The text below walks through data of patent US20230063116A1 (Regeneron, published 2023).

Like-named read-outs stand apart in the source and are kept apart here.

Assay [1] concerns the target T1, VEGF110 (hVEGF110, aa 207-318) (human, UniProt P15692 207-318).
T1 sequence (looked up): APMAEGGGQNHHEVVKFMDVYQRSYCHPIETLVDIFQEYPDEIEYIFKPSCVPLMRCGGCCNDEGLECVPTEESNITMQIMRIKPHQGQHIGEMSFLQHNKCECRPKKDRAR
The assay is described as follows: cell-based or functional assay.

For assay [2], the target named is T2, human VEGF165 (REGN110) (human, UniProt P15692 207-395). Nature of the assay: cell-based or functional assay.
Target sequence in this assay (P15692 other isoform, or with tags, fused parts or gaps): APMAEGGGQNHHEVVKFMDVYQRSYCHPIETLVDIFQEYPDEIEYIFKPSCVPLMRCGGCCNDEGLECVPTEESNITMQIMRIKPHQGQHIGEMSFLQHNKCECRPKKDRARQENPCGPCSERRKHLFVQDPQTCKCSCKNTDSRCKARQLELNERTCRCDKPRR
For assay [3], the target named is T2, human VEGF165 (REGN110). Nature of the assay: SPR, Biacore, 25 C; trap captured on anti-VEGFR1 mAb surface, hVEGF165 injected; 1:1 fit. On the procedure: (§1) Experimental Procedure. Equilibrium dissociation constants (KD values) for human VEGF₁₆₅ binding to various purified VEGF mini-trap constructs were determined using a real-time surface plasmon resonance biosensor using a Biacore 3000 instrument. All binding studies were performed in 10 mM HEPES, 150 mM NaCl, 3 mM EDTA, and 0.05% v/v Surfactant Tween-20, pH 7.4 (HBS-ET) running buffer at 25° C. The Biacore sensor surface was first derivatized by amine coupling with a monoclonal mouse anti-VEGFR1 antibody to capture VEGF mini-trap constructs. Binding studies were performed on the human VEGF reagent, human VEGF₁₆₅ (human VEGF₁₆₅; SEQ ID NO: 31). Different concentrations of VEGF₁₆₅ reagent, prepared in HBS-ET running buffer (2 nM — 62.5 pM; 2-fold serial dilution for human VEGF₁₆₅), were injected over an anti-VEGFR1-captured VEGF mini-trap construct surface for 1.8 minutes at a flow rate of 90 μL/minute, while the dissociation of VEGF mini-trap constructs bound VEGF₁₆₅ reagent was monitored for 60 minutes in HBS-ET running buffer. Kinetic association (kₐ) and dissociation (kd) rate constants were determined by fitting the real-time sensorgrams to a 1:1 binding model using Scrubber 2.0c curve fitting software. Binding dissociation equilibrium constants (KD) and dissociative half-lives (t½) were calculated from the kinetic rate constants as: […]

Assay [4] concerns the target T2, human VEGF165 (REGN110). Nature of the assay: SPR, Biacore 3000, 25 C; trap captured on anti-VEGFR1 mAb surface, hVEGF165 injected; 1:1 fit.
Assay [5] concerns the target T2, human VEGF165 (REGN110). Nature of the assay: SPR, Biacore, 25 C; trap captured on anti-VEGFR1 mAb surface, hVEGF165 injected. On the procedure:
as §1

Assay [6] concerns the target T3, VEGF121 (hVEGF121, aa 207-327) (human, UniProt P15692 207-327).
T3 chain: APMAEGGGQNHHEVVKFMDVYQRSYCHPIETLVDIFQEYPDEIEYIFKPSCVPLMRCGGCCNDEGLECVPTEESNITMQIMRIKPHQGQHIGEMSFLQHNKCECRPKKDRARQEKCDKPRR
The assay is described as follows: cell-based or functional assay.

The target of assay [7] is T3, VEGF121 (hVEGF121, aa 207-327). Nature of the assay: cell-based or functional assay.
Assay [8] has as its target T1, VEGF110 (hVEGF110, aa 207-318). The assay is described as follows: cell-based or functional assay. The source holds these as a separate data set.
The target in assay [9] is T3, VEGF121 (hVEGF121, aa 207-327). Nature of the assay: cell-based or functional assay.
The target in assay [10] is T1, VEGF110 (hVEGF110, aa 207-318). Nature of the assay: cell-based or functional assay. The source holds these as a separate data set.
In assay [11] the target is T2, human VEGF165 (REGN110). The assay is described as follows: SPR, Biacore 3000, 25 C; trap captured on anti-VEGFR1 mAb surface, hVEGF165 injected.

B1: REGN7483^F (homodimer mini-trap, FabRICATOR cleaved from aflibercept) (receptor)
chain: SDTGRPFVEMYSEIPEIIHMTEGRELVIPCRVTSPNITVTLKKFPLDTLIPDGKRIIWDSRKGFIISNATYKEIGLLTCEATVNGHLYKTNYLTHRQTNTIIDVVLSPSHGIELSVGEKLVLNCTARTELNVGIDFNWEYPSSKHQHKKLVNRDLKTQSGSEMKKFLSTLTIDGVTRSDQGLYTCAASSGLMTKKNSTFVRVHEKDKTHTCPPCPAPELLG
modifications: N-linked glycans at N36, N68, N123, N196 (Table C)
notes: Disulfide-linked homodimer made by IdeS cleavage of aflibercept; also called dimer mini-trap from FabRICATOR (IdeS) cleavage of REGN3
Turning to B1, the “IC50 (M), inhibition of VEGFR1 signaling (luciferase), 20 pM VEGF110” value (“IC50 (M), inhibition … 20 pM VEGF110” below) in assay [1] worked out at 1.04e-11 M. Besides, in assay [2], the “IC50 (M), inhibition of VEGFR1 signaling (luciferase), 20 pM VEGF165” value (“IC50 (M), inhibition … 20 pM VEGF165” below) is 1.23e-11 M. Besides, in [3], binding was characterised by a dissociation constant (Kd) of 1.32 pM, the koff was ≥ 1e-05 s⁻¹, the kon was 7.59e+06 M⁻¹ s⁻¹ and the “t1/2 (dissociative half-life)” value was ≥ 19.2 h. Also, in [4], the Kd was ≤ 1.32 pM, the off-rate constant (koff) was ≤ 1e-05 s⁻¹, the kon was found to be 7.58e+06 M⁻¹ s⁻¹ and the “t½ (dissociative half-life)” value is ≥ 19.2 h.

B2: REGN7483^R (homodimer mini-trap, recombinant) (receptor)
chain: B1 chain
modifications: N-linked glycans at N36, N68, N123, N196 (Table C)
notes: also called Recombinant dimer mini-trap
In the case of B2, the “IC50 (M), inhibition … 20 pM VEGF110” value in assay [1] was 1.3e-11 M. For the same molecule, the “IC50 (M), inhibition … 20 pM VEGF165” value in assay [2] was 1.92e-11 M. In addition, in [3], the dissociation constant (Kd) was 1.59 pM, the koff was ≥ 1e-05 s⁻¹, the kon is 6.3e+06 M⁻¹ s⁻¹ and the “t1/2 (dissociative half-life)” value is ≥ 19.2 h. Also, in [4], the Kd was ≤ 1.58 pM, the dissociation rate constant (koff) is ≤ 1e-05 s⁻¹, the association rate constant (kon) worked out at 6.3e+06 M⁻¹ s⁻¹ and the “t½ (dissociative half-life)” value is ≥ 19.2 h.

B3: REGN7850 (VEGF mini-trap-hFc …) (receptor)
chain: SDTGRPFVEMYSEIPEIIHMTEGRELVIPCRVTSPNITVTLKKFPLDTLIPDGKRIIWDSRKGFIISNATYKEIGLLTCEATVNGHLYKTNYLTHRQTNTIIDVVLSPSHGIELSVGEKLVLNCTARTELNVGIDFNWEYPSSKHQHKKLVNRDLKTQSGSEMKKFLSTLTIDGVTRSDQGLYTCAASSGLMTKKNSTFVRVHEKDKTHTCPPCPPC
notes: Recombinant homodimer; also called REGN7850 (CPPCPPC)
Take B3: the “2nM hVEGF165 Bound” value in [5] stood at 56 RU. Further, the “IC50 (M), inhibition of VEGFR1 signaling (luciferase), 20 pM VEGF121” value (shortened to “IC50 (M), inhibition … 20 pM VEGF121”) in assay [6] came to 1.66e-11 M. Further, the “IC50 (M), inhibition … 20 pM VEGF110” value in assay [1] was found to be 1.22e-11 M. For the same molecule, the “IC50 (M), inhibition … 20 pM VEGF165” value in [2] is 2.99e-11 M. In assay [3], the equilibrium dissociation constant (Kd) turned out to be 1.55 pM, the koff is ≥ 1e-05 s⁻¹, the kon was 6.46e+06 M⁻¹ s⁻¹ and the “t1/2 (dissociative half-life)” value is ≥ 19.2 h.

B4: REGN7851 (VEGF mini-trap-hFc …) (receptor)
chain: SDTGRPFVEMYSEIPEIIHMTEGRELVIPCRVTSPNITVTLKKFPLDTLIPDGKRIIWDSRKGFIISNATYKEIGLLTCEATVNGHLYKTNYLTHRQTNTIIDVVLSPSHGIELSVGEKLVLNCTARTELNVGIDFNWEYPSSKHQHKKLVNRDLKTQSGSEMKKFLSTLTIDGVTRSDQGLYTCAASSGLMTKKNSTFVRVHEKDKTHTCPPCPPCPPC
notes: Recombinant homodimer; also called REGN7851 (CPPCPPCPPC)
As to B4, the “2nM hVEGF165 Bound” value in assay [5] was 51 RU. Further, in [6], the “IC50 (M), inhibition … 20 pM VEGF121” value worked out at 1.83e-11 M. In addition, the “IC50 (M), inhibition … 20 pM VEGF110” value in [1] is 1.45e-11 M. Moreover, in assay [2], the “IC50 (M), inhibition … 20 pM VEGF165” value amounted to 2.68e-11 M. In assay [3], binding was put at a Kd of 1.81 pM, the koff is ≥ 1e-05 s⁻¹, the association rate constant (kon) came to 5.51e+06 M⁻¹ s⁻¹ and the “t1/2 (dissociative half-life)” value is ≥ 19.2 h.

B5: REGN7991 (hVEGF minitrap-G4Sx9-hVEGF minitrap) (receptor)
chain: SDTGRPFVEMYSEIPEIIHMTEGRELVIPCRVTSPNITVTLKKFPLDTLIPDGKRIIWDSRKGFIISNATYKEIGLLTCEATVNGHLYKTNYLTHRQTNTIIDVVLSPSHGIELSVGEKLVLNCTARTELNVGIDFNWEYPSSKHQHKKLVNRDLKTQSGSEMKKFLSTLTIDGVTRSDQGLYTCAASSGLMTKKNSTFVRVHEKGGGGSGGGGSGGGGSGGGGSGGGGSGGGGSGGGGSGGGGSGGGGSSDTGRPFVEMYSEIPEIIHMTEGRELVIPCRVTSPNITVTLKKFPLDTLIPDGKRIIWDSRKGFIISNATYKEIGLLTCEATVNGHLYKTNYLTHRQTNTIIDVVLSPSHGIELSVGEKLVLNCTARTELNVGIDFNWEYPSSKHQHKKLVNRDLKTQSGSEMKKFLSTLTIDGVTRSDQGLYTCAASSGLMTKKNSTFVRVHEK
notes: Monomeric single chain, no tag; also called REGN7991 (G4Sx9 linker); single chain mini-trap with (G4S)9, no tag
As for B5, in [5], the “2nM hVEGF165 Bound” value was found to be 40 RU. Moreover, in [3], the dissociation constant (Kd) is 13.8 pM, the koff turned out to be 9.79e-05 s⁻¹, the on-rate (kon) is 7.1e+06 M⁻¹ s⁻¹ and the “t1/2 (dissociative half-life)” value came to 1.97 h. Further, in assay [7], the “IC50 (M), inhibition … 20 pM VEGF121” value is 7.71e-11 M. The “IC50 (M), inhibition … 20 pM VEGF110” value in assay [8] came to 7.88e-11 M.

B6: REGN6824 (hVEGF minitrap-G4Sx3-hVEGF minitrap-mmH) (receptor)
chain: SDTGRPFVEMYSEIPEIIHMTEGRELVIPCRVTSPNITVTLKKFPLDTLIPDGKRIIWDSRKGFIISNATYKEIGLLTCEATVNGHLYKTNYLTHRQTNTIIDVVLSPSHGIELSVGEKLVLNCTARTELNVGIDFNWEYPSSKHQHKKLVNRDLKTQSGSEMKKFLSTLTIDGVTRSDQGLYTCAASSGLMTKKNSTFVRVHEKGGGGSGGGGSGGGGSSDTGRPFVEMYSEIPEIIHMTEGRELVIPCRVTSPNITVTLKKFPLDTLIPDGKRIIWDSRKGFIISNATYKEIGLLTCEATVNGHLYKTNYLTHRQTNTIIDVVLSPSHGIELSVGEKLVLNCTARTELNVGIDFNWEYPSSKHQHKKLVNRDLKTQSGSEMKKFLSTLTIDGVTRSDQGLYTCAASSGLMTKKNSTFVRVHEKEQKLISEEDLGGEQKLISEEDLHHHHHH
notes: Monomeric single chain; also called REGN6824 (G4Sx3 linker); single chain mini-trap with (G4S)3 linker and C-terminal mmH tag
Take B6: the “2nM hVEGF165 Bound” value in [5] amounted to 33 RU. Further, in [3], binding was put at a Kd of 86.1 pM, the dissociation rate constant (koff) was 0.000554 s⁻¹, the on-rate (kon) came out at 6.44e+06 M⁻¹ s⁻¹ and the “t1/2 (dissociative half-life)” value was found to be 0.348 h. Also, in [9], the “IC50 (M), inhibition … 20 pM VEGF121” value amounted to 2.44e-10 M. Also, the “IC50 (M), inhibition … 20 pM VEGF110” value in assay [10] was determined as 2.22e-10 M. For the same molecule, the “100 nM hVEGF165 Bound” value in assay [11] came to 33 RU. Further, in assay [4], binding was characterised by a dissociation constant (Kd) of 86.1 pM, the off-rate constant (koff) worked out at 0.000554 s⁻¹, the kon was determined as 6.44e+06 M⁻¹ s⁻¹ and the “t½ (dissociative half-life)” value is 0.348 h.

B7: REGN7992 (hVEGF minitrap-G4Sx12-hVEGF minitrap) (receptor)
chain: SDTGRPFVEMYSEIPEIIHMTEGRELVIPCRVTSPNITVTLKKFPLDTLIPDGKRIIWDSRKGFIISNATYKEIGLLTCEATVNGHLYKTNYLTHRQTNTIIDVVLSPSHGIELSVGEKLVLNCTARTELNVGIDFNWEYPSSKHQHKKLVNRDLKTQSGSEMKKFLSTLTIDGVTRSDQGLYTCAASSGLMTKKNSTFVRVHEKGGGGSGGGGSGGGGSGGGGSGGGGSGGGGSGGGGSGGGGSGGGGSGGGGSGGGGSGGGGSSDTGRPFVEMYSEIPEIIHMTEGRELVIPCRVTSPNITVTLKKFPLDTLIPDGKRIIWDSRKGFIISNATYKEIGLLTCEATVNGHLYKTNYLTHRQTNTIIDVVLSPSHGIELSVGEKLVLNCTARTELNVGIDFNWEYPSSKHQHKKLVNRDLKTQSGSEMKKFLSTLTIDGVTRSDQGLYTCAASSGLMTKKNSTFVRVHEK
notes: Monomeric single chain, no tag; also called REGN7992 (G4Sx12 linker); single chain mini-trap with (G4S)12, no tag
Regarding B7, in assay [5], the “2nM hVEGF165 Bound” value was found to be 22 RU. Besides, in [3], binding was put at a Kd of 15.3 pM, the koff turned out to be 9.7e-05 s⁻¹, the kon amounted to 6.3e+06 M⁻¹ s⁻¹ and the “t1/2 (dissociative half-life)” value amounted to 1.98 h. Besides, in assay [7], the “IC50 (M), inhibition … 20 pM VEGF121” value was 2.37e-11 M. Also, the “IC50 (M), inhibition … 20 pM VEGF110” value in assay [8] was found to be 3.42e-11 M.
